These results are taken from article PMC4672726.

In this assay the target is hemagglutinin (HA)–tagged FERONIA (FER-HA) (Arabidopsis thaliana) (UniProt Q9SCZ4). The experiment in a line: co-IP.
Sequence of hemagglutinin (HA)–tagged FERONIA (FER-HA) (Arabidopsis thaliana) (Q9SCZ4 28-895): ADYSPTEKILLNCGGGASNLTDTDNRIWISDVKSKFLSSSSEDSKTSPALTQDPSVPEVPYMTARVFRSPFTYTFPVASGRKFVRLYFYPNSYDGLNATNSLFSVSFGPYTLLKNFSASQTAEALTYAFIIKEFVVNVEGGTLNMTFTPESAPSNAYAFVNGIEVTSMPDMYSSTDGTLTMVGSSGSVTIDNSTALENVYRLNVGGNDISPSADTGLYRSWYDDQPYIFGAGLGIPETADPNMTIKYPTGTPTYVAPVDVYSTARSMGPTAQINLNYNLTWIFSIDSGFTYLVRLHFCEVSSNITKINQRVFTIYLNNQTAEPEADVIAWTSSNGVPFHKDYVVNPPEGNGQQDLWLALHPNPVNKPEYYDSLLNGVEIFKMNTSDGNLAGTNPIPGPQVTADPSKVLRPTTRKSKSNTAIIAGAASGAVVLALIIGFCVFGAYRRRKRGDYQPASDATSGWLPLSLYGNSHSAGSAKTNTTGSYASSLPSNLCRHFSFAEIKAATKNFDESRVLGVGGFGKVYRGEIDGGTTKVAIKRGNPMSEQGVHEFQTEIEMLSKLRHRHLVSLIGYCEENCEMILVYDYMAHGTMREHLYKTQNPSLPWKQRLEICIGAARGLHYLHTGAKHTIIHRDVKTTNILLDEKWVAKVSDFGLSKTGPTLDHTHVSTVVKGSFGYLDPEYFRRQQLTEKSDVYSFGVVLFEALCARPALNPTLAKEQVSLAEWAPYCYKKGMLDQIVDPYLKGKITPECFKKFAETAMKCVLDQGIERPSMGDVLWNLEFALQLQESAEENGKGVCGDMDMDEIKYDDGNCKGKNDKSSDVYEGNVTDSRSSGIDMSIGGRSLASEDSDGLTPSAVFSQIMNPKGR

“HisRALF (RALF, rapid alkalinization factor, N-terminal 6×His fusion peptide) (from UniProt Q9SRY3 72-120)” came in with a fold binding over the inactive analog HisRALF(Δ2–8) of 4.5 to 6 fold.
